Results reported in publication PMC4500099.

Target: Mercuric ion reductase (MerA) from Metallosphaera sedula (Metallosphaera sedula)
Test: crystal structure; hanging drop; 0.085M TRIS (pH 8.5), 15% v/v glycerol, 14% w/v PEG400, 0.19M LiSO4, 20 mg/mL protein; data collected at 100 K; bound FAD; space group P22(1)2(1), two monomers per asymmetric unit

Substance “Mercuric ion reductase (MerA) from Metallosphaera sedula (enzyme)” has a stoichiometry N of 2.
